The source of these data is the supplement of paper PMC9112550, “Optimization of the antimicrobial peptide Bac7 by deep mutational scanning” (BMC Biology, 2022).

The subject of the series is Escherichia coli TOP10. Briefly: shrunken log2 fold change of peptide-encoding DNA abundance (4.5 h post-induction vs induction); higher = less antimicrobial activity (less host growth inhibition). As to conditions: time post-induction: 4.5 h; library: site-saturation at positions 5, 18, 19, 20.
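Further: peptides expressed intracellularly from a pBAD plasmid library in pooled LB shake-flask culture, induced with 0.3% L-arabinose, DNA abundance read by NGS, three biological replicates, DESeq2 with apeglm shrinkage.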

RRIRRRPPRLPRPRPRPSPQPRP: the “shrunken log2 fold change” value is 1.96. As for RRIRWRPPRLPRPRPRPQAHPRP, the figure is 0.00175. As to RRIRRRPPRLPRPRPRPQHAPRP, the “shrunken log2 fold change” value was found to be 0.314. With RRIRRRPPRLPRPRPRPLPKPRP, the “shrunken log2 fold change” value is 0.634. As to RRIRTRPPRLPRPRPRPMAIPRP, the “shrunken log2 fold change” value was -0.00284.

Take RRIRTRPPRLPRPRPRPQTRPRP: the “shrunken log2 fold change” value amounted to 0.145. The value for RRIRCRPPRLPRPRPRPKSAPRP was 0.146; that for RRIRYRPPRLPRPRPRPCWFPRP was -0.0378; that for RRIRLRPPRLPRPRPRPQDIPRP was 0.133. Regarding RRIRYRPPRLPRPRPRPLMPPRP, the “shrunken log2 fold change” value was -0.931.

Turning to RRIRARPPRLPRPRPRPGTGPRP, the “shrunken log2 fold change” value was 0.158. The value for RRIRLRPPRLPRPRPRPIRDPRP was -0.0112. The value for RRIRRRPPRLPRPRPRPRFDPRP was 0.121; that for RRIRHRPPRLPRPRPRPKTQPRP was -0.15; that for RRIRPRPPRLPRPRPRPSQSPRP was -0.0693. As for RRIRDRPPRLPRPRPRPSDFPRP, the figure is 0.259; as for RRIRDRPPRLPRPRPRPPWVPRP, -0.0472.

Consider RRIRPRPPRLPRPRPRPKHGPRP, for which the “shrunken log2 fold change” value is 0.127.

For RRIRERPPRLPRPRPRPAWNPRP, the “shrunken log2 fold change” value worked out at 0.167. The value for RRIRVRPPRLPRPRPRPIVEPRP was -0.0668; that for RRIRHRPPRLPRPRPRPMRGPRP was 0.384; that for RRIRHRPPRLPRPRPRPEWTPRP was 0.0291. Take RRIRIRPPRLPRPRPRPQQDPRP: the “shrunken log2 fold change” value is -0.442. As for RRIRLRPPRLPRPRPRPDVRPRP, the figure is 0.0235. Consider RRIRRRPPRLPRPRPRPLYDPRP, for which the “shrunken log2 fold change” value is -0.0854.

As to RRIRDRPPRLPRPRPRPILEPRP, the “shrunken log2 fold change” value was -0.0842. The value for RRIRFRPPRLPRPRPRPLLVPRP was 0.0528; that for RRIRYRPPRLPRPRPRPQQIPRP was -0.142; that for RRIRTRPPRLPRPRPRPCCIPRP was -0.155. As for RRIRNRPPRLPRPRPRPYITPRP, the figure is -0.292.

In the case of RRIRKRPPRLPRPRPRPAYCPRP, the “shrunken log2 fold change” value worked out at 0.0801. The value for RRIRNRPPRLPRPRPRPQFDPRP was 0.152; that for RRIRDRPPRLPRPRPRPNMKPRP was 0.818; that for RRIRHRPPRLPRPRPRPYLQPRP was -0.0639. The value for RRIRPRPPRLPRPRPRPAQFPRP was 0.272. RRIRDRPPRLPRPRPRPPTYPRP: the “shrunken log2 fold change” value was -0.383. RRIRARPPRLPRPRPRPEPGPRP: the “shrunken log2 fold change” value turned out to be 0.98. As for RRIRTRPPRLPRPRPRPVIPPRP, the figure is -0.133; as for RRIRSRPPRLPRPRPRPGVSPRP, 0.119. The value for RRIRRRPPRLPRPRPRPRAHPRP was 0.592; that for RRIRPRPPRLPRPRPRPAQGPRP was 0.156; that for RRIRNRPPRLPRPRPRPRPRPRP was 0.586. The value for RRIRPRPPRLPRPRPRPRQMPRP was 0.184.

Regarding RRIRHRPPRLPRPRPRPAAQPRP, the “shrunken log2 fold change” value is -0.0888. The value for RRIRYRPPRLPRPRPRPNWIPRP was -0.312.

In the case of RRIRSRPPRLPRPRPRPNHWPRP, the “shrunken log2 fold change” value was -0.277.

Regarding RRIRVRPPRLPRPRPRPANQPRP, the “shrunken log2 fold change” value is -0.186.

As for RRIRLRPPRLPRPRPRPSCCPRP, the “shrunken log2 fold change” value is -0.212. As for RRIRKRPPRLPRPRPRPFTPPRP, the figure is 0.0993; as for RRIRPRPPRLPRPRPRPYWWPRP, 0.0199; as for RRIRERPPRLPRPRPRPIPRPRP, -0.138.

Regarding RRIRGRPPRLPRPRPRPVWCPRP, the “shrunken log2 fold change” value was determined as 0.245.

As for RRIRMRPPRLPRPRPRPCTLPRP, the “shrunken log2 fold change” value is -0.192. As for RRIRKRPPRLPRPRPRPWQGPRP, the figure is 0.0142; as for RRIRKRPPRLPRPRPRPANRPRP, 0.167; as for RRIRMRPPRLPRPRPRPTWTPRP, 0.667. Take RRIRFRPPRLPRPRPRPQVRPRP: the “shrunken log2 fold change” value is 0.305. As for RRIRTRPPRLPRPRPRPFGRPRP, the figure is 0.0376; as for RRIRRRPPRLPRPRPRPTMMPRP, 0.167; as for RRIRARPPRLPRPRPRPEDDPRP, 0.306. As for RRIRWRPPRLPRPRPRPSGHPRP, the figure is -0.195. As for RRIRHRPPRLPRPRPRPHGNPRP, the figure is -1.11.

For the sequence RRIRMRPPRLPRPRPRPEDCPRP, the “shrunken log2 fold change” value was 0.0737. For the sequence RRIRFRPPRLPRPRPRPPCEPRP, the “shrunken log2 fold change” value worked out at 0.409. As for RRIRRRPPRLPRPRPRPFYEPRP, the figure is -0.0293. As for RRIRYRPPRLPRPRPRPYMNPRP, the figure is 0.0271; as for RRIRGRPPRLPRPRPRPHWSPRP, -0.132. As for RRIRNRPPRLPRPRPRPADKPRP, the “shrunken log2 fold change” value came to 0.0545. The value for RRIRDRPPRLPRPRPRPICNPRP was 0.324; that for RRIRFRPPRLPRPRPRPNKQPRP was 0.0839; that for RRIRLRPPRLPRPRPRPSKLPRP was -0.388. As for RRIRPRPPRLPRPRPRPAPNPRP, the figure is 1.16. The value for RRIRLRPPRLPRPRPRPNSLPRP was -0.101.

For RRIRPRPPRLPRPRPRPQCWPRP, the “shrunken log2 fold change” value turned out to be 0.0194. As for RRIRFRPPRLPRPRPRPETQPRP, the figure is -0.0941; as for RRIRIRPPRLPRPRPRPQESPRP, -0.617. As for RRIRTRPPRLPRPRPRPYGIPRP, the figure is -0.0927.

Turning to RRIRVRPPRLPRPRPRPMMGPRP, the “shrunken log2 fold change” value is 0.00748. With RRIRWRPPRLPRPRPRPNNRPRP, the “shrunken log2 fold change” value was -0.559.

Consider RRIRERPPRLPRPRPRPIHHPRP, for which the “shrunken log2 fold change” value was -0.7. The value for RRIRERPPRLPRPRPRPWFLPRP was -0.628.

Take RRIRLRPPRLPRPRPRPMLRPRP: the “shrunken log2 fold change” value was found to be 0.0543. The value for RRIRFRPPRLPRPRPRPYGLPRP was -0.521. On to RRIRKRPPRLPRPRPRPEFFPRP, for which the “shrunken log2 fold change” value amounted to 0.7. As for RRIRARPPRLPRPRPRPCFLPRP, the figure is -0.24. The value for RRIRLRPPRLPRPRPRPSVEPRP was 0.0961; that for RRIRFRPPRLPRPRPRPAWTPRP was -0.0896; that for RRIRMRPPRLPRPRPRPMMPPRP was 0.0687. RRIRVRPPRLPRPRPRPPTRPRP: the “shrunken log2 fold change” value amounted to 0.508.

Turning to RRIRFRPPRLPRPRPRPHRKPRP, the “shrunken log2 fold change” value worked out at 0.306. As for RRIRERPPRLPRPRPRPMQIPRP, the figure is -0.0552. RRIRGRPPRLPRPRPRPIMCPRP: the “shrunken log2 fold change” value worked out at 0.0901. Turning to RRIRDRPPRLPRPRPRPPAEPRP, the “shrunken log2 fold change” value amounted to 0.525. As for RRIRPRPPRLPRPRPRPNANPRP, the figure is 0.0132; as for RRIRVRPPRLPRPRPRPHYAPRP, -0.0814. As for RRIRNRPPRLPRPRPRPGNSPRP, the figure is -0.0208. The value for RRIRYRPPRLPRPRPRPNPRPRP was -0.123; that for RRIRKRPPRLPRPRPRPWNYPRP was -0.154; that for RRIRFRPPRLPRPRPRPAMCPRP was -0.596. For the sequence RRIRTRPPRLPRPRPRPYIIPRP, the “shrunken log2 fold change” value is -0.59. As for RRIRKRPPRLPRPRPRPAHAPRP, the figure is 1.11.

Regarding RRIRNRPPRLPRPRPRPEHSPRP, the “shrunken log2 fold change” value worked out at 0.0507. As for RRIRARPPRLPRPRPRPDLMPRP, the figure is 0.354; as for RRIRERPPRLPRPRPRPEVWPRP, 0.4. The value for RRIRYRPPRLPRPRPRPPVAPRP was 0.0771.

For RRIRSRPPRLPRPRPRPCHAPRP, the “shrunken log2 fold change” value is -0.0203. As for RRIRQRPPRLPRPRPRPIAAPRP, the figure is 0.269. As for RRIRARPPRLPRPRPRPRGRPRP, the figure is 0.703; as for RRIRRRPPRLPRPRPRPKRSPRP, 0.11.

Regarding RRIRTRPPRLPRPRPRPVPEPRP, the “shrunken log2 fold change” value came out at 0.323.

Turning to RRIRLRPPRLPRPRPRPLFMPRP, the “shrunken log2 fold change” value is -0.546. As for RRIRTRPPRLPRPRPRPTSFPRP, the figure is 0.0555; as for RRIRSRPPRLPRPRPRPCAAPRP, 0.312; as for RRIRRRPPRLPRPRPRPMTIPRP, 0.0416.

For RRIRFRPPRLPRPRPRPVWMPRP, the “shrunken log2 fold change” value is -0.119. The value for RRIRNRPPRLPRPRPRPEDDPRP was -0.01.

For the sequence RRIRVRPPRLPRPRPRPRHCPRP, the “shrunken log2 fold change” value is -0.383. The value for RRIRCRPPRLPRPRPRPFGQPRP was -0.442. The value for RRIRYRPPRLPRPRPRPEWMPRP was -0.758. Regarding RRIRNRPPRLPRPRPRPTNQPRP, the “shrunken log2 fold change” value is -0.281.

On to RRIRKRPPRLPRPRPRPIRCPRP, for which the “shrunken log2 fold change” value was 0.0497. As for RRIRVRPPRLPRPRPRPKFWPRP, the figure is 0.48; as for RRIRKRPPRLPRPRPRPVCMPRP, 0.0492. The value for RRIRYRPPRLPRPRPRPAWKPRP was 0.0184; that for RRIRLRPPRLPRPRPRPHMEPRP was -0.101.
